Reference: paper PMC8212047

What was measured:
Test in all cases: SPR
CB6 (human) = biological target: CB6 (human)
RGN10933 (human) = biological target: RGN10933 (human)
RGN10987 (human) = biological target: RGN10987 (human)

Measured: binding relative to WT RBD

Chain of RGN10933 (human) (heavy, as listed by the source, chain 1 of 2): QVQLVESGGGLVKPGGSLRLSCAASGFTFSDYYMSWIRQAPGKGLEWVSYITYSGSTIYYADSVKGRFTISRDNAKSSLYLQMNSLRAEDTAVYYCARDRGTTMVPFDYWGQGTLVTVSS
Chain of RGN10933 (human) (light, as listed by the source, chain 2 of 2): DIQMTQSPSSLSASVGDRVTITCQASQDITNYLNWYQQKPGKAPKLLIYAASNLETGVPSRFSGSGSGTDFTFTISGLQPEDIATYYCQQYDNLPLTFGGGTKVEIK
Chain of RGN10987 (human) (heavy, as listed by the source, chain 1 of 2): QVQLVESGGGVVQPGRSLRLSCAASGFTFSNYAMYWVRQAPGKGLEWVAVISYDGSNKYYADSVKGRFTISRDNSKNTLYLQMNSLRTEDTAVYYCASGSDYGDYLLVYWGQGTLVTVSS
Chain of RGN10987 (human) (light, as listed by the source, chain 2 of 2): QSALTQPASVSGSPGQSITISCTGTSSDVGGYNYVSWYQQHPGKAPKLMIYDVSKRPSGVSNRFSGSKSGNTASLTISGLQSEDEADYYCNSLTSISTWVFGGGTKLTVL

RBD Y505W-FC fusion protein (from UniProt P0DTC2)
> 50%: all assays above

RBD T345I-FC fusion protein (from UniProt P0DTC2)
> 50%: all assays above

RBD A475V-FC fusion protein (from UniProt P0DTC2)
> 50%: all assays above
